According to publication doi:10.1101/2023.04.03.535218, “Distributable, Metabolic PET Reporting of Tuberculosis” (bioRxiv, 2023):

B1: OtsB (Escherichia coli K-12) (protein)
chain: MTEPLTETPELSAKYAWFFDLDGTLAEIKPHPDQVVVPDNILQGLQLLATASDGALALISGRSMVELDALAKPYRFPLAGVHGAERRDINGKTHIVHLPDAIARDISVQLHTVIAQYPGAELEAKGMAFALHYRQAPQHEDALMTLAQRITQIWPQMALQQGKCVVEIKPRGTSKGEAIAAFMQEAPFIGRTPVFLGDDLTDESGFAVVNRLGGMSVKIGTGATQASWRLAGVPDVWSWLEMITTALQQKRENNRSDDYESFSRSI
notes: expressed in E. coli
B2: OtsB^Sf (Escherichia coli K-12) (protein)
chain: B1 chain
notes: purified on Ni-NTA

Key:
continuous 1H NMR assay = substrate: O=P(O)(O)OC[C@H]1O[C@H](O[C@H]2O[C@H](CO)[C@@H](O)[C@H](O)[C@H]2O)[C@H](O)[C@@H](O)[C@@H]1O; experiment: continuous 1H NMR assay; format: biochemical, Escherichia coli; conditions: 37 °C
Excerpt: continuous 1H NMR assay on OtsB

[1] = substrate: O=P(O)(O)OC[C@H]1O[C@H](O[C@H]2O[C@H](CO)[C@@H](O)[C@H](O)[C@H]2O)[C@H](O)[C@@H](O)[C@@H]1O; experiment: table note: endpoint HPLC; Methods: malachite green assay; format: biochemical, Escherichia coli; conditions: method note of the table (HPLC, fixed Glc, 70 °C) does not fit this enzyme
Excerpt: table note: endpoint HPLC; Methods: malachite green assay on OtsB^Sf

Protein | Km (continuous 1H NMR assay) [mM] | kcat (continuous 1H NMR assay) [s⁻¹] | kcat/Km (continuous 1H NMR assay) [M⁻¹ s⁻¹] | Km [1] [mM] | kcat [1] [s⁻¹] | kcat/Km [1] [M⁻¹ s⁻¹]
B1 | 3.6 ± 0.8 | 286 ± 34 | 79000 |  |  | 
B2 |  |  |  | 2.8 ± 0.7 | 740 ± 96 | 264000
